Reference: US20210388087A1 (Chugai, published 2021)

T1: Human CD3eg linker (human)
T1 construct: Single-chain construct; also called recombinant human CD3
T1 chain: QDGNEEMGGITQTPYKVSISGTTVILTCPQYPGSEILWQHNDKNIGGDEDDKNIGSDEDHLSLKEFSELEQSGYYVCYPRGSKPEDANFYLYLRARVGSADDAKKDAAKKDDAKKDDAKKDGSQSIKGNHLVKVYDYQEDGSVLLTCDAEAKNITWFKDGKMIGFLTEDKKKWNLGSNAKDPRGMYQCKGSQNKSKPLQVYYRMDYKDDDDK


Target: T1, Human CD3eg linker
Assay: SPR; fold vs parent H183/L072

Row | Binder | fold change of affinity [fold]
1 | H183/L072 VL T92D (antibody, name in Kabat numbering, V domains shown) VH: QVQLVESGGGLVQPGRSLRLSCAASGFTFSNAWMHWVRQAPGKGLEWVAQIKDKGNAYAAYYAPSVKGRFTISRDDSKNSIYLQMNSLKTEDTAVYYCHYVHYASASTVLPAFGVDAWGQGTTVTVSS VL: DIVMTQSPLSLPVTPGEPASISCQASQELVHMNRNTYLHWYQQKPGQAPRLLIYKVSNRFPGVPDRFSGSGSGTDFTLKISRVEAEDVGVYYCAQGDSVPFTFGQGTKLEIK | 0
2 | H183/L072 VL T92E (antibody, name in Kabat numbering, V domains shown) VH: QVQLVESGGGLVQPGRSLRLSCAASGFTFSNAWMHWVRQAPGKGLEWVAQIKDKGNAYAAYYAPSVKGRFTISRDDSKNSIYLQMNSLKTEDTAVYYCHYVHYASASTVLPAFGVDAWGQGTTVTVSS VL: DIVMTQSPLSLPVTPGEPASISCQASQELVHMNRNTYLHWYQQKPGQAPRLLIYKVSNRFPGVPDRFSGSGSGTDFTLKISRVEAEDVGVYYCAQGESVPFTFGQGTKLEIK | 0
3 | H183/L072 VL T92M (antibody, name in Kabat numbering, V domains shown) VH: QVQLVESGGGLVQPGRSLRLSCAASGFTFSNAWMHWVRQAPGKGLEWVAQIKDKGNAYAAYYAPSVKGRFTISRDDSKNSIYLQMNSLKTEDTAVYYCHYVHYASASTVLPAFGVDAWGQGTTVTVSS VL: DIVMTQSPLSLPVTPGEPASISCQASQELVHMNRNTYLHWYQQKPGQAPRLLIYKVSNRFPGVPDRFSGSGSGTDFTLKISRVEAEDVGVYYCAQGMSVPFTFGQGTKLEIK | 0.3
4 | H183/L072 VL T92R (antibody, name in Kabat numbering, V domains shown) VH: QVQLVESGGGLVQPGRSLRLSCAASGFTFSNAWMHWVRQAPGKGLEWVAQIKDKGNAYAAYYAPSVKGRFTISRDDSKNSIYLQMNSLKTEDTAVYYCHYVHYASASTVLPAFGVDAWGQGTTVTVSS VL: DIVMTQSPLSLPVTPGEPASISCQASQELVHMNRNTYLHWYQQKPGQAPRLLIYKVSNRFPGVPDRFSGSGSGTDFTLKISRVEAEDVGVYYCAQGRSVPFTFGQGTKLEIK | 0.5
5 | H183/L072 VL T92L (antibody, name in Kabat numbering, V domains shown) VH: QVQLVESGGGLVQPGRSLRLSCAASGFTFSNAWMHWVRQAPGKGLEWVAQIKDKGNAYAAYYAPSVKGRFTISRDDSKNSIYLQMNSLKTEDTAVYYCHYVHYASASTVLPAFGVDAWGQGTTVTVSS VL: DIVMTQSPLSLPVTPGEPASISCQASQELVHMNRNTYLHWYQQKPGQAPRLLIYKVSNRFPGVPDRFSGSGSGTDFTLKISRVEAEDVGVYYCAQGLSVPFTFGQGTKLEIK | 0.3
6 | H183/L072 VL T92K (antibody, name in Kabat numbering, V domains shown) VH: QVQLVESGGGLVQPGRSLRLSCAASGFTFSNAWMHWVRQAPGKGLEWVAQIKDKGNAYAAYYAPSVKGRFTISRDDSKNSIYLQMNSLKTEDTAVYYCHYVHYASASTVLPAFGVDAWGQGTTVTVSS VL: DIVMTQSPLSLPVTPGEPASISCQASQELVHMNRNTYLHWYQQKPGQAPRLLIYKVSNRFPGVPDRFSGSGSGTDFTLKISRVEAEDVGVYYCAQGKSVPFTFGQGTKLEIK | 0.8
7 | H183/L072 VL T92G (antibody, name in Kabat numbering, V domains shown) VH: QVQLVESGGGLVQPGRSLRLSCAASGFTFSNAWMHWVRQAPGKGLEWVAQIKDKGNAYAAYYAPSVKGRFTISRDDSKNSIYLQMNSLKTEDTAVYYCHYVHYASASTVLPAFGVDAWGQGTTVTVSS VL: DIVMTQSPLSLPVTPGEPASISCQASQELVHMNRNTYLHWYQQKPGQAPRLLIYKVSNRFPGVPDRFSGSGSGTDFTLKISRVEAEDVGVYYCAQGGSVPFTFGQGTKLEIK | 0.2
8 | H183/L072 VL T92S (antibody, name in Kabat numbering, V domains shown) VH: QVQLVESGGGLVQPGRSLRLSCAASGFTFSNAWMHWVRQAPGKGLEWVAQIKDKGNAYAAYYAPSVKGRFTISRDDSKNSIYLQMNSLKTEDTAVYYCHYVHYASASTVLPAFGVDAWGQGTTVTVSS VL: DIVMTQSPLSLPVTPGEPASISCQASQELVHMNRNTYLHWYQQKPGQAPRLLIYKVSNRFPGVPDRFSGSGSGTDFTLKISRVEAEDVGVYYCAQGSSVPFTFGQGTKLEIK | 0.5
9 | H183/L072 VL T92N (antibody, name in Kabat numbering, V domains shown) VH: QVQLVESGGGLVQPGRSLRLSCAASGFTFSNAWMHWVRQAPGKGLEWVAQIKDKGNAYAAYYAPSVKGRFTISRDDSKNSIYLQMNSLKTEDTAVYYCHYVHYASASTVLPAFGVDAWGQGTTVTVSS VL: DIVMTQSPLSLPVTPGEPASISCQASQELVHMNRNTYLHWYQQKPGQAPRLLIYKVSNRFPGVPDRFSGSGSGTDFTLKISRVEAEDVGVYYCAQGNSVPFTFGQGTKLEIK | 0.2
10 | H183/L072 VL T92V (antibody, name in Kabat numbering, V domains shown) VH: QVQLVESGGGLVQPGRSLRLSCAASGFTFSNAWMHWVRQAPGKGLEWVAQIKDKGNAYAAYYAPSVKGRFTISRDDSKNSIYLQMNSLKTEDTAVYYCHYVHYASASTVLPAFGVDAWGQGTTVTVSS VL: DIVMTQSPLSLPVTPGEPASISCQASQELVHMNRNTYLHWYQQKPGQAPRLLIYKVSNRFPGVPDRFSGSGSGTDFTLKISRVEAEDVGVYYCAQGVSVPFTFGQGTKLEIK | 0.4
11 | H183/L072 VL T92H (antibody, name in Kabat numbering, V domains shown) VH: QVQLVESGGGLVQPGRSLRLSCAASGFTFSNAWMHWVRQAPGKGLEWVAQIKDKGNAYAAYYAPSVKGRFTISRDDSKNSIYLQMNSLKTEDTAVYYCHYVHYASASTVLPAFGVDAWGQGTTVTVSS VL: DIVMTQSPLSLPVTPGEPASISCQASQELVHMNRNTYLHWYQQKPGQAPRLLIYKVSNRFPGVPDRFSGSGSGTDFTLKISRVEAEDVGVYYCAQGHSVPFTFGQGTKLEIK | 0.2
12 | H183/L072 VL T92Q (antibody, name in Kabat numbering, V domains shown) VH: QVQLVESGGGLVQPGRSLRLSCAASGFTFSNAWMHWVRQAPGKGLEWVAQIKDKGNAYAAYYAPSVKGRFTISRDDSKNSIYLQMNSLKTEDTAVYYCHYVHYASASTVLPAFGVDAWGQGTTVTVSS VL: DIVMTQSPLSLPVTPGEPASISCQASQELVHMNRNTYLHWYQQKPGQAPRLLIYKVSNRFPGVPDRFSGSGSGTDFTLKISRVEAEDVGVYYCAQGQSVPFTFGQGTKLEIK | 0
13 | H183/L072 VL T97A (antibody, name in Kabat numbering, V domains shown) VH: QVQLVESGGGLVQPGRSLRLSCAASGFTFSNAWMHWVRQAPGKGLEWVAQIKDKGNAYAAYYAPSVKGRFTISRDDSKNSIYLQMNSLKTEDTAVYYCHYVHYASASTVLPAFGVDAWGQGTTVTVSS VL: DIVMTQSPLSLPVTPGEPASISCQASQELVHMNRNTYLHWYQQKPGQAPRLLIYKVSNRFPGVPDRFSGSGSGTDFTLKISRVEAEDVGVYYCAQGTSVPFAFGQGTKLEIK | 0.8
14 | H183/L072 VL T92F (antibody, name in Kabat numbering, V domains shown) VH: QVQLVESGGGLVQPGRSLRLSCAASGFTFSNAWMHWVRQAPGKGLEWVAQIKDKGNAYAAYYAPSVKGRFTISRDDSKNSIYLQMNSLKTEDTAVYYCHYVHYASASTVLPAFGVDAWGQGTTVTVSS VL: DIVMTQSPLSLPVTPGEPASISCQASQELVHMNRNTYLHWYQQKPGQAPRLLIYKVSNRFPGVPDRFSGSGSGTDFTLKISRVEAEDVGVYYCAQGFSVPFTFGQGTKLEIK | 0.3

Next, values leading:

Row | fold change of affinity [fold] | Binder
15 | 0.6 | H183/L072 VL T97E (antibody, name in Kabat numbering, V domains shown) VH: QVQLVESGGGLVQPGRSLRLSCAASGFTFSNAWMHWVRQAPGKGLEWVAQIKDKGNAYAAYYAPSVKGRFTISRDDSKNSIYLQMNSLKTEDTAVYYCHYVHYASASTVLPAFGVDAWGQGTTVTVSS VL: DIVMTQSPLSLPVTPGEPASISCQASQELVHMNRNTYLHWYQQKPGQAPRLLIYKVSNRFPGVPDRFSGSGSGTDFTLKISRVEAEDVGVYYCAQGTSVPFEFGQGTKLEIK
16 | 0.6 | H183/L072 VL T97D (antibody, name in Kabat numbering, V domains shown) VH: QVQLVESGGGLVQPGRSLRLSCAASGFTFSNAWMHWVRQAPGKGLEWVAQIKDKGNAYAAYYAPSVKGRFTISRDDSKNSIYLQMNSLKTEDTAVYYCHYVHYASASTVLPAFGVDAWGQGTTVTVSS VL: DIVMTQSPLSLPVTPGEPASISCQASQELVHMNRNTYLHWYQQKPGQAPRLLIYKVSNRFPGVPDRFSGSGSGTDFTLKISRVEAEDVGVYYCAQGTSVPFDFGQGTKLEIK
17 | 0.5 | H183/L072 VL T97I (antibody, name in Kabat numbering, V domains shown) VH: QVQLVESGGGLVQPGRSLRLSCAASGFTFSNAWMHWVRQAPGKGLEWVAQIKDKGNAYAAYYAPSVKGRFTISRDDSKNSIYLQMNSLKTEDTAVYYCHYVHYASASTVLPAFGVDAWGQGTTVTVSS VL: DIVMTQSPLSLPVTPGEPASISCQASQELVHMNRNTYLHWYQQKPGQAPRLLIYKVSNRFPGVPDRFSGSGSGTDFTLKISRVEAEDVGVYYCAQGTSVPFIFGQGTKLEIK
18 | 0.3 | H183/L072 VL T97F (antibody, name in Kabat numbering, V domains shown) VH: QVQLVESGGGLVQPGRSLRLSCAASGFTFSNAWMHWVRQAPGKGLEWVAQIKDKGNAYAAYYAPSVKGRFTISRDDSKNSIYLQMNSLKTEDTAVYYCHYVHYASASTVLPAFGVDAWGQGTTVTVSS VL: DIVMTQSPLSLPVTPGEPASISCQASQELVHMNRNTYLHWYQQKPGQAPRLLIYKVSNRFPGVPDRFSGSGSGTDFTLKISRVEAEDVGVYYCAQGTSVPFFFGQGTKLEIK
19 | 1 | H183/L072 VL T97G (antibody, name in Kabat numbering, V domains shown) VH: QVQLVESGGGLVQPGRSLRLSCAASGFTFSNAWMHWVRQAPGKGLEWVAQIKDKGNAYAAYYAPSVKGRFTISRDDSKNSIYLQMNSLKTEDTAVYYCHYVHYASASTVLPAFGVDAWGQGTTVTVSS VL: DIVMTQSPLSLPVTPGEPASISCQASQELVHMNRNTYLHWYQQKPGQAPRLLIYKVSNRFPGVPDRFSGSGSGTDFTLKISRVEAEDVGVYYCAQGTSVPFGFGQGTKLEIK
20 | 0.5 | H183/L072 VL T97H (antibody, name in Kabat numbering, V domains shown) VH: QVQLVESGGGLVQPGRSLRLSCAASGFTFSNAWMHWVRQAPGKGLEWVAQIKDKGNAYAAYYAPSVKGRFTISRDDSKNSIYLQMNSLKTEDTAVYYCHYVHYASASTVLPAFGVDAWGQGTTVTVSS VL: DIVMTQSPLSLPVTPGEPASISCQASQELVHMNRNTYLHWYQQKPGQAPRLLIYKVSNRFPGVPDRFSGSGSGTDFTLKISRVEAEDVGVYYCAQGTSVPFHFGQGTKLEIK
